Data from publication PMC5454392, “Selective BET bromodomain inhibition as an antifungal therapeutic strategy” (Nature Communications, 2017).
Square brackets hold non-standard residues; d marks the D form. Ends that are not written are not given here. Arg(Me2a) = CN(C)C(=N)NCCC[C@H](N)C(=O)O; Lys(Me3) = C[N+](C)(C)CCCC[C@H](N)C(=O)O; Arg(Me2s) = CN=C(NC)NCCC[C@H](N)C(=O)O; pT = C[C@@H](OP(=O)(O)O)[C@H](N)C(=O)O; Lys(Me2) = CN(C)CCCC[C@H](N)C(=O)O; pS = N[C@@H](COP(=O)(O)O)C(=O)O; Lys(Me) = CNCCCC[C@H](N)C(=O)O; Me2a = not defined here; me2a = not defined here

T1: CaBdf1 BD1 (GST-tagged, wild-type) (Candida albicans (strain SC5314 / ATCC …, UniProt Q5A4W8))
T1 chain: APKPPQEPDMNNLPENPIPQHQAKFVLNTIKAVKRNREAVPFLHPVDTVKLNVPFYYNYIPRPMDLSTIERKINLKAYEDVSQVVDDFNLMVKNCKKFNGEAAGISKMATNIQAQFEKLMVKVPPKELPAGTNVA

T2: CaBdf1 BD2 (GST-tagged, wild-type) (Candida albicans (strain SC5314 / ATCC …, UniProt Q5A4W8))
T2 chain: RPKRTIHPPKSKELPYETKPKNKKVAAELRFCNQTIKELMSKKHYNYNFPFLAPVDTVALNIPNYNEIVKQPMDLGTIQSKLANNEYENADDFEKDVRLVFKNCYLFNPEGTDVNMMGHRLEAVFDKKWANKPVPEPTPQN

B1: H3 16-35 (peptide)
chain: PRKQLATKAARK(Me3)SAPATGG
B2: H3 1-19 (peptide)
chain: A[Arg(Me2a)]TK(Ac)QTA[Arg(Me2a)][Lys(Me3)]STGGKAPRKQ
B3: H3 16-35 (peptide)
chain: PRKQLATKAA[Arg(Me2a)]K[pS]APATGG
B4: H3 16-35 (peptide)
chain: PRKQLATKAARK[pS]APATGG
B5: H4 1-19 (peptide)
chain: SGRGKGGKGLGKGGAKRHR
modifications: pS G R G K G G K G L G K G G A K R H R
B6: H3 1-19 (peptide)
chain: ARTKQTARKSTGGKAPRKQ
modifications: A R T K Q T A Rme2a Kme2 S pT G G K A P R K Q
B7: H3 1-19 (peptide)
chain: ARTKQTARKSTGGKAPRKQ
modifications: A R T Kme3 Q T A Rme2s Kme2 S T G G K A P R K Q
B8: H3 1-19 (peptide)
chain: ARTK(me2)QTAR(me2a)K(me2)STGGKAPRKQ
modifications: reading uncertain
B9: H3 1-19 (peptide)
chain: AR(Me2a)TK(Ac)QTAR(Me2a)K(Ac)STGGKAPRKQ
modifications: reading uncertain
B10: H3 1-19 (peptide)
chain: ARTKQTARKSTGGKAPRKQ
modifications: A R T K Q T A R Kme1 pS T G G K A P R K Q
B11: H3 1-19 (peptide)
chain: A[Arg(Me2s)][pT]K(Me)QTARKSTGGKAPRKQ
B12: H3 1-19 (peptide)
chain: ARTKQTARKSTGGKAPRKQ
modifications: not fully specified
B13: H3 1-19 (peptide)
chain: ARTKQTARKSTGGKAPRKQ
modifications: A R T K Q T A R Kme3 pS T G G K A P R K Q
B14: H4 1-19 (peptide)
chain: SGRGKGGKGLGKGGAKRHR
modifications: S G R G Kac G G Kac G L G Kac G G A K R H R
B15: H3 1-19 (peptide)
chain: A[Arg(Me2s)][pT]KQTARKSTGGKAPRKQ
B16: H3 1-19 (peptide)
chain: AR(Me2a)TK(Me2)QTAR(Me2s)K(Me3)STGGKAPRKQ
modifications: reading uncertain
B17: H3 1-19 (peptide)
chain: ARTK(Me2)QTARKSTGGKAPRKQ
B18: H3 1-19 (peptide)
chain: ARTKQTARKSTGGKAPRKQ
modifications: A Rme2a T Kme1 Q T A R Kme2 S T G G K A P R K Q
B19: H3 1-19 (peptide)
chain: A[Arg(Me2a)]T[Lys(Me3)]QTA[Arg(Me2a)][Lys(Me2)]STGGKAPRKQ
B20: H3 1-19 (peptide)
chain: A[Arg(Me2s)]T[Lys(Me2)]QTARKSTGGKAPRKQ
B21: H3 1-19 (peptide)
chain: ARTKQTARKSTGGKAPRKQ
modifications: A Rme2s T Kme3 Q T A Rme2s Kme1 S T G G K A P R K Q
B22: H4 1-19 (peptide)
chain: SGRGKGGKGLGKGGAKRHR
modifications: pS G R G Kac G G K G L G K G G A K R H R
B23: H4 1-19 (peptide)
chain: SGRGKGGKGLGKGGAKRHR
modifications: S G Rme2s G K G G Kac G L G K G G A K R H R
B24: H3 26-45 (peptide)
chain: RKSAPATGGVKKPHRYRPG
modifications: R K S A P A T G G V Kac K P H R Y R P G
B25: H3 1-19 (peptide)
chain: ARTKQTARKSTGGKAPRKQ
modifications: A Rme2a T Kac Q T A R Kme2 S T G G K A P R K Q
B26: H3 1-19 (peptide)
chain: AR(Me2s)TK(Me3)QTAR(Me2s)K(Me3)STGGKAPRKQ
B27: H3 1-19 (peptide)
chain: ARTKQTARKSTGGKAPRKQ
modifications: A Rme2s T Kme2 Q T A Rme2s Kme1 S T G G K A P R K Q
B28: H3 1-19 (peptide)
chain: ARTK(Me3)QTAR(Me2a)K(Ac)STGGKAPRKQ
modifications: reading uncertain
B29: H3 1-19 (peptide)
chain: ARTKQTARKSTGGKAPRKQ
modifications: A R T K Q T A Rme2a Kme2 pS T G G K A P R K Q
B30: H3 16-35 (peptide)
chain: PRKQLATKAAR(Me2s)K(Me2)SAPATGG
B31: H3 1-19 (peptide)
chain: ARTKQTARKSTGGKAPRKQ
modifications: A Rme2s T Kme2 Q T A Rme2a Kme2 S T G G K A P R K Q
B32: H3 1-19 (peptide)
chain: ARTK(Ac)QTAR(me2s)K(Ac)STGGKAPRKQ
B33: H3 1-19 (peptide)
chain: ARTK(Me)QTAR(Me2a)K(Me2)STGGKAPRKQ
modifications: reading uncertain
B34: H2B 1-19 (peptide)
chain: PDPAK(Ac)SAPAPKKG[pS]KKAVT
B35: H3 1-19 (peptide)
chain: ARTKQTARKSTGGKAPRKQ
modifications: A Rme2s T Kac Q T A Rme2s K S T G G K A P R K Q
B36: H3 1-19 (peptide)
chain: ARTKQTARKSTGGKAPRKQ
modifications: A R T Kme2 Q T A Rme2s Kme2 S T G G K A P R K Q
B37: H3 1-19 (peptide)
chain: ARTKQTARKSTGGKAPRKQ
modifications: A Rme2a T Kme1 Q T A Rme2a K S T G G K A P R K Q
B38: H3 1-19 (peptide)
chain: ARTK(me3)QTAR(me2a)K(me3)STGGKAPRKQ
modifications: reading uncertain
B39: H3 1-19 (peptide)
chain: ARTKQTARKSTGGKAPRKQ
modifications: A R T K Q T A R Kac S T G G K A P R K Q
B40: H3 1-19 (peptide)
chain: AR(me2s)TK(Ac)QTAR(me2a)K(me2)STGGKAPRKQ
modifications: reading uncertain
B41: H2B 1-19 (peptide)
chain: PDPAK(Ac)SAPAPKKG[pS]K(Ac)KAVT
B42: H3 1-19 (peptide)
chain: ARTKQTARKSTGGKAPRKQ
modifications: A Rme2a T Kac Q T A Rme2s Kme2 S T G G K A P R K Q
B43: H3 1-19 (peptide)
chain: ARTKQTARKSTGGKAPRKQ
modifications: A R T K Q T A Rme2a Kac S pT G G K A P R K Q
B44: H3 1-19 (peptide)
chain: ARTKQTARKSTGGKAPRKQ
modifications: A Rme2s T Kme3 Q T A Rme2s Kme2 S T G G K A P R K Q
B45: H3 1-19 (peptide)
chain: ARTKQTARKSTGGKAPRKQ
modifications: A R T K Q T A Rme2a K S T G G K A P R K Q
B46: H3 1-19 (peptide)
chain: A[Arg(Me2a)]T[Lys(Me)]QTA[Arg(Me2s)][Lys(Me)]STGGKAPRKQ
B47: H3 1-19 (peptide)
chain: A[Arg(Me2a)]T[Lys(Me2)]QTAR[Lys(Me2)]STGGKAPRKQ
B48: H4 1-19 (peptide)
chain: SGRGKGGKGLGKGGAKRHR
modifications: S G Rme2s G K G G K G L G K G G A K R H R
B49: H4 1-19 (peptide)
chain: SGRGKGGKGLGKGGAKRHR
modifications: S G R G K G G Kac G L G K G G A Kac R H R
B50: H3 1-19 (peptide)
chain: AR(me2s)TK(me2)QTAR(me2s)K(me3)STGGKAPRKQ
B51: H3 1-19 (peptide)
chain: AR(me2a)TK(Ac)QTAR(me2a)K(me2)STGGKAPRKQ
modifications: reading uncertain
B52: H3 1-19 (peptide)
chain: ARTKQTARKSTGGKAPRKQ
modifications: A R T K Q T A R K S pT G G Kac A P R K Q

Target: T1, CaBdf1 BD1 (GST-tagged, wild-type)
Assay: histone peptide array (Active Motif MODified), 1 uM GST-tagged bromodomain, anti-GST detection, normalized mean intensity

| Binder | binding score |
| --- | --- |
| B1 | 0.00616 |
| B2 | 0.00834 |
| B3 | 0.00435 |
| B4 | 0.00218 |
| B5 | 0.00471 |
| B6 | 0.00435 |
| B7 | 0.00254 |
| B8 | 0.000725 |
| B9 | 0.0413 |
| B10 | 0.00181 |
| B11 | 0.00181 |
| B12 | 0 |
| B13 | 0.00363 |
| B14 | 0.0729 |
| B15 | 0.00326 |
| B16 | 0.00145 |
| B17 | 0.00181 |
| B18 | 0.00326 |
| B19 | 0.00254 |
| B20 | 0.0029 |
| B21 | 0.00363 |
| B22 | 0.0167 |
| B23 | 0.0152 |
| B24 | 0.0344 |
| B25 | 0.0112 |

| Binder | binding score |
| --- | --- |
| B26 | 0.00653 |
| B27 | 0.00544 |
| B28 | 0.0359 |
| B29 | 0.00471 |
| B30 | 0.00254 |
| B31 | 0.0029 |
| B32 | 0.0729 |
| B33 | 0.0138 |
| B34 | 0.00689 |
| B35 | 0.00363 |
| B36 | 0.00218 |
| B37 | 0.00435 |
| B38 | 0.00508 |
| B39 | 0.0087 |
| B40 | 0.00979 |
| B41 | 0.0656 |
| B42 | 0.00616 |
| B43 | 0.00363 |
| B44 | 0.0029 |
| B45 | 0.00326 |
| B46 | 0.00471 |
| B47 | 0.00399 |
| B48 | 0.00399 |
| B49 | 0.0228 |
| B50 | 0.00218 |

Target: T2, CaBdf1 BD2 (GST-tagged, wild-type)
Assay: as above

| Binder | binding score |
| --- | --- |
| B1 | 0.00851 |
| B3 | 0.00407 |
| B4 | 0.00555 |
| B5 | 0.00444 |
| B7 | 0.00407 |
| B8 | 0.00259 |
| B9 | 0.0107 |
| B51 | 0.00703 |
| B11 | 0.0037 |
| B12 | 0.00259 |
| B13 | 0.00333 |
| B14 | 0.179 |
| B15 | 0.00074 |
| B17 | 0.00148 |
| B18 | 0.0037 |
| B20 | 0 |
| B22 | 0.00555 |
| B23 | 0.00777 |

| Binder | binding score |
| --- | --- |
| B24 | 0.0122 |
| B25 | 0.00407 |
| B27 | 0.00407 |
| B28 | 0.00888 |
| B29 | 0.00259 |
| B30 | 0.00222 |
| B31 | 0.00666 |
| B34 | 0.00074 |
| B52 | 0.00999 |
| B37 | 0.00259 |
| B39 | 0.0037 |
| B41 | 0.174 |
| B44 | 0.00407 |
| B45 | 0.00222 |
| B46 | 0.0037 |
| B47 | 0.00222 |
| B48 | 0.00666 |
| B49 | 0.00999 |
